The values that follow are results of earlier work, collected in patent US8840883B2, “Metallo-protein and tocotrienol (MP-T3) compositions with non-protein-type metal chelator and uses thereof” (Naidu LP, priority 2007, dated 2014).

The test system of the data set is macrophages incubated with acetylated low-density lipoproteins (LDL).

B1: bovine milk LF: bi-lobed glycoprotein of the transferrin family of iron-binding metallo-proteins, from bovine milk (protein, UniProt P24627 20-708, looked up)
Lactotransferrin: APRKNVRWCTISQPEWFKCRRWQWRMKKLGAPSITCVRRAFALECIRAIAEKKADAVTLDGGMVFEAGRDPYKLRPVAAEIYGTKESPQTHYYAVAVVKKGSNFQLDQLQGRKSCHTGLGRSAGWIIPMGILRPYLSWTESLEPLQGAVAKFFSASCVPCIDRQAYPNLCQLCKGEGENQCACSSREPYFGYSGAFKCLQDGAGDVAFVKETTVFENLPEKADRDQYELLCLNNSRAPVDAFKECHLAQVPSHAVVARSVDGKEDLIWKLLSKAQEKFGKNKSRSFQLFGSPPGQRDLLFKDSALGFLRIPSKVDSALYLGSRYLTTLKNLRETAEEVKARYTRVVWCAVGPEEQKKCQQWSQQSGQNVTCATASTTDDCIVLVLKGEADALNLDGGYIYTAGKCGLVPVLAENRKSSKHSSLDCVLRPTEGYLAVAVVKKANEGLTWNSLKDKKSCHTAVDRTAGWNIPMGLIVNQTGSCAFDEFFSQSCAPGADPKSRLCALCAGDDQGLDKCVPNSKEKYYGYTGAFRCLAEDVGDVAFVKNDTVWENTNGESTADWAKNLNREDFRLLCLDGTRKPVTEAQSCHLAVAPNHAVVSRSDRAAHVKQVLLHQQALFGKNGKNCPDKFCLFKSETKNLLFNDNTECLAKLGGRPTYEEYLGTEYVTAIANLKKCSTSPLLEACAFLTR
As to B1, the “decrease of accumulation of CE in macrophages” value is given as “more than 80%”.
